According to patent US20240270874A1:
Blank lines part the entries; values can stand above or below the substance they belong to.

Legend:
Experiment in all cases: cell-based or functional assay
[1] = biological target: human KLB & human FGFR4 on L6 cells (human) (UniProt Q86Z14)
[2] = biological target: human KLB & human FGFR3c on L6 cells (human) (UniProt Q86Z14)
[3] = biological target: human FGFR1c on cells (human) (UniProt P11362)
[4] = biological target: human KLB&FGFR1c complex on cells (human) (UniProt Q86Z14)
Sequence of human KLB&FGFR1c complex on cells (human) (Q86Z14 whole entry, chain 1 of 2): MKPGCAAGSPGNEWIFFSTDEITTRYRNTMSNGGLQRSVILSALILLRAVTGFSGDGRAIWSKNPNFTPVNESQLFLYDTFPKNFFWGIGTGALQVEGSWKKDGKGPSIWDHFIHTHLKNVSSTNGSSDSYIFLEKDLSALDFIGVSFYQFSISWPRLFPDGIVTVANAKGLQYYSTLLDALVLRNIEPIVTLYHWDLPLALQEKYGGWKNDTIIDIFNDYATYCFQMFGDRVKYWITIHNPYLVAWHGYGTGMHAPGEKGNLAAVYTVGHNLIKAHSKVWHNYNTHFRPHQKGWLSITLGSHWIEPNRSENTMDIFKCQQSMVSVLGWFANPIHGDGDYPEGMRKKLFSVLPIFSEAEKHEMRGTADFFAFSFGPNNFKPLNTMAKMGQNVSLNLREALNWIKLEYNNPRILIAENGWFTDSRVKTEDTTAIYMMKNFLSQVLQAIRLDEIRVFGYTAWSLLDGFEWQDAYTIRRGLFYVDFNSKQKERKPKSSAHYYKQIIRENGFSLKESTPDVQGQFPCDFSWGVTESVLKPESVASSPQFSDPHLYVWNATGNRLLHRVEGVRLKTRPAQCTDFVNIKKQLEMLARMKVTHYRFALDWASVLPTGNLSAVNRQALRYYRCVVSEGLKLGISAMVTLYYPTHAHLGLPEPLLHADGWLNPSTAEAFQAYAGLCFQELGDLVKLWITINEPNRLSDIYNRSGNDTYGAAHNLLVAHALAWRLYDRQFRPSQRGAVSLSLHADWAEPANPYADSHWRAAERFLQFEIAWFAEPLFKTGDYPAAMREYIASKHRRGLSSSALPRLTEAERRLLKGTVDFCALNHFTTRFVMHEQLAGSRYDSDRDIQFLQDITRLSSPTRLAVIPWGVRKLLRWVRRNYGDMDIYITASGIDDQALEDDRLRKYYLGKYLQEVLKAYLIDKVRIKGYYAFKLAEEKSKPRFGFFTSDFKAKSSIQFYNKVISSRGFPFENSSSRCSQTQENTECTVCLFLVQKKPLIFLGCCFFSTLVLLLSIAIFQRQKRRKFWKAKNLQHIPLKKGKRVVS
Sequence of human KLB&FGFR1c complex on cells (human) (P11362 22-822, chain 2 of 2, further chain): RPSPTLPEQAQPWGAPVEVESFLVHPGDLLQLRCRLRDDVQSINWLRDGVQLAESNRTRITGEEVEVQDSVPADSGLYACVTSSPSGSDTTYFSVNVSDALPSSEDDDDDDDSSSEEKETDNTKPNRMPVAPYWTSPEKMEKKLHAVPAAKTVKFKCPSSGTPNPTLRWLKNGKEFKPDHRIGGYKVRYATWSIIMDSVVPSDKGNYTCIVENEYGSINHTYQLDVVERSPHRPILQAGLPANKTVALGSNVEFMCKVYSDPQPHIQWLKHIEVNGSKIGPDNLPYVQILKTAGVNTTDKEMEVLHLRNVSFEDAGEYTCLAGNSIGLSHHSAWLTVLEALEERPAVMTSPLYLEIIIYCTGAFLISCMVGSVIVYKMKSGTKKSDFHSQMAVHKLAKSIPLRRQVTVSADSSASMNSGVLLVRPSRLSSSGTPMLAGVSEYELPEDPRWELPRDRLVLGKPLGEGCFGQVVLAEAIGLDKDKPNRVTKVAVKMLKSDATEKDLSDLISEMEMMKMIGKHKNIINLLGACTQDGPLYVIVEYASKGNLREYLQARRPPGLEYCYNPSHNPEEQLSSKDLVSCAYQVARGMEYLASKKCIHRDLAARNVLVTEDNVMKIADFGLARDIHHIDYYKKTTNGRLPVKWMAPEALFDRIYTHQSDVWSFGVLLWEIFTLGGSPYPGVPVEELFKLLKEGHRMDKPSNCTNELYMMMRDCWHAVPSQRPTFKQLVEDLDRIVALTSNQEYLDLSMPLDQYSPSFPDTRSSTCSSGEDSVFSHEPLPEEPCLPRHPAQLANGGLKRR

Sequence of human KLB & human FGFR4 on L6 cells (human) (Q86Z14 whole entry, chain 1 of 2): as the sequence (Q86Z14 whole entry, chain 1 of 2) above
Sequence of human KLB & human FGFR4 on L6 cells (human) (P22455 22-802, chain 2 of 2, further chain): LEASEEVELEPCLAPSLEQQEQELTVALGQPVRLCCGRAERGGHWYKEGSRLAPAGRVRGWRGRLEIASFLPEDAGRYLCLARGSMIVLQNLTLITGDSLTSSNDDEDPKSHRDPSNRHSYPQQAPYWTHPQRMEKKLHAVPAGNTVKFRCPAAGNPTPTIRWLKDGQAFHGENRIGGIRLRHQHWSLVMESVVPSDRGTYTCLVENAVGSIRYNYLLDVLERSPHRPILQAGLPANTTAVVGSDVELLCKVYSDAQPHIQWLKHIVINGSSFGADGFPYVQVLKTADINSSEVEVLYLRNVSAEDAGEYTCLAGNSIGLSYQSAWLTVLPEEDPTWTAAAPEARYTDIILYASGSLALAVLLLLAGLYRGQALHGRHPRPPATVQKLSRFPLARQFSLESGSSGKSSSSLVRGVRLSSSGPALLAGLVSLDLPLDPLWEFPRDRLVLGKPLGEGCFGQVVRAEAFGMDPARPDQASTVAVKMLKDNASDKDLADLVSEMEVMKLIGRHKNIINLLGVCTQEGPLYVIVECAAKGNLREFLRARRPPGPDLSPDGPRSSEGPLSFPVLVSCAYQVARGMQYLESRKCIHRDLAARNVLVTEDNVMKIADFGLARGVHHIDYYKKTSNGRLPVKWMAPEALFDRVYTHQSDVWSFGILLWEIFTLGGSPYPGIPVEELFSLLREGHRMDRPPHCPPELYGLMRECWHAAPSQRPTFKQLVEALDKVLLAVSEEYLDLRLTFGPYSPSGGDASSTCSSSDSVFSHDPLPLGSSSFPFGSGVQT
Sequence of human KLB & human FGFR3c on L6 cells (human) (Q86Z14 whole entry, chain 1 of 2): as the sequence (Q86Z14 whole entry, chain 1 of 2) above
Sequence of human KLB & human FGFR3c on L6 cells (human) (P22607 23-806, chain 2 of 2, further chain): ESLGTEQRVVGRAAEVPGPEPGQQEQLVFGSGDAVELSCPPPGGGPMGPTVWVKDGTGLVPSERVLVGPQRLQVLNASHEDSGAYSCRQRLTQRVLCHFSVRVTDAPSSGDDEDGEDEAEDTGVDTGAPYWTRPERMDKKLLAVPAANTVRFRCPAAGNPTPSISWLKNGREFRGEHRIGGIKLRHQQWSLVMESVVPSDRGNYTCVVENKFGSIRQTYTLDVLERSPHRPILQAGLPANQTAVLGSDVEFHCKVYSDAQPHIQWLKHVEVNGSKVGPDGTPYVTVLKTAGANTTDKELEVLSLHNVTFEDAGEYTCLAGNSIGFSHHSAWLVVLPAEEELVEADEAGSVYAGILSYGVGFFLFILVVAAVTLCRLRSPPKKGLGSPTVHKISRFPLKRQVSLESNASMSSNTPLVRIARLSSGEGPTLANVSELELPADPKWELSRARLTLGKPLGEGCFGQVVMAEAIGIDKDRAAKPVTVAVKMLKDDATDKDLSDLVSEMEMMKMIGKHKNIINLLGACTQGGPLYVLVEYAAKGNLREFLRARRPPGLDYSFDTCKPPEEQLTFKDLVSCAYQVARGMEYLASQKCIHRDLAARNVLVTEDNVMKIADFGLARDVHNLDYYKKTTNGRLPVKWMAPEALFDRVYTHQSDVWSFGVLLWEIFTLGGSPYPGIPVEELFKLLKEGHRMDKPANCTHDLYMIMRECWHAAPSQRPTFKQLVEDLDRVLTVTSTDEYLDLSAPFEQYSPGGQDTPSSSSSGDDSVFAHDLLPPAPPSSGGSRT
Sequence of human FGFR1c on cells (human) (P11362 22-822): as the sequence (P11362 22-822, chain 2 of 2, further chain) above

Activation fold, pERK/total ERK in L6-hKLB&hFGFR4 cells [1]: 2.11 fold
Activation fold, pERK/total ERK in L6-hKLB&hFGFR3c cells [2]: 10.2 fold
Substance: AKR001 (ligand)

Activation fold, SRE-Luc2P reporter in HEK293-hFGFR1c cells [3]: 11.6 fold
Substance: FGF2 (Sino Biological, 10014-HNAE) (from UniProt P09038 143-288) (ligand)

Activation fold, GAL4-Elk1 luciferase reporter in CHOK1-hKLB&hFGFR1c cells [4]: 5.62 fold
Activation fold, SRE-Luc2P reporter in HEK293T-hKLB&hFGFR1c cells [4]: 1.65 fold
EC50 (nM), GAL4-Elk1 luciferase reporter in CHOK1-hKLB&hFGFR1c cells [4]: 0.64 nM
EC50 (nM), SRE-Luc2P reporter in HEK293T-hKLB&hFGFR1c cells [4]: 5.06 nM
Substance: MK3655 (antibody)
